Results on six molecules are retold here after patent US20260092110A1 (Kyowa Kirin, published 2026).

For orientation: Kd means the equilibrium constant for the complex coming apart. As usually defined, the koff is a measure of how fast the partners let go of each other. A lower koff goes with a long-lived complex. The term kon denotes the second-order rate constant of association. Read a low kon as slower complex formation.

Assay [1] has as its target T1, human MOG (hMOG) expressed on HEK293, Expi293F or L929 cells (human, UniProt Q16653 30-247).
T1 construct: also called hMOG/HEK293; hMOG/HEK293F
T1 chain: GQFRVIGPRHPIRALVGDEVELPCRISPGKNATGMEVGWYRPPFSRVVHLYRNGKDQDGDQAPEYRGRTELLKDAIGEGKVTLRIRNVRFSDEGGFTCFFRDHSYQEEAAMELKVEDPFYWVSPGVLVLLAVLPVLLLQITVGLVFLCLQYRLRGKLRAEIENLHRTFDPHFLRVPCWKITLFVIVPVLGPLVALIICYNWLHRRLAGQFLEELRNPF
The assay can be described thus: flow cytometry on L929 cells expressing human MOG (hMOG/L929); antibody titrated, RPE-labelled goat anti-human antibody. The source says: (§1) pEF6_hMOG obtained in Example 5 was introduced to mouse connective tissue-derived fibroblast L929 cells [American Type Culture Collection (ATCC) No.: CCL-1] using HilyMax (manufactured by Dojindo Laboratories). The gene-transfected cells were selected using an antibiotic substance, Blasticidin (manufactured by Invitrogen) and then cloned by the limiting dilution method. Using the L929 cells expressing hMOG on the cell surface (abbreviated as hMOG/L929 below), the reactivities of the bispecific antibodies were analyzed by the method described below.
(§2) The hMOG/L929 cells were suspended in a Staining Buffer (SB) of PBS containing 0.1% NaN₃ and 1% FBS and dispensed to a round-bottom 96-well plate (manufactured by Becton Dickinson). […] After suspending the pellets, the plate was left to stand at ice temperature for 30 minutes. The supernatants were removed after further centrifugation (2000 rpm, 4° C., two minutes), and the pellets were washed with SB. Then, 1 μg/mL RPE fluorescently labeled goat anti-human antibody (manufactured by Southern Biotech) was added, and the plate was incubated at ice temperature for 30 minutes. After washing with SB, the cells were suspended in SB, and the fluorescence intensities of the cells were measured with a flow cytometer FACS CANTO II (manufactured by Becton Dickinson). The results are shown in FIGS. 12A to 12C and FIGS. 13A and 13B.
For orientation: A flow cytometer gives signals particle by particle.

The target of assay [2] is T2, extracellular domain protein of rat MOG to which GST is added at the C-terminus (rMOG-GST) (rat).
T2 construct: whole construct entry
T2 sequence (chain, as listed by the source limits assumed): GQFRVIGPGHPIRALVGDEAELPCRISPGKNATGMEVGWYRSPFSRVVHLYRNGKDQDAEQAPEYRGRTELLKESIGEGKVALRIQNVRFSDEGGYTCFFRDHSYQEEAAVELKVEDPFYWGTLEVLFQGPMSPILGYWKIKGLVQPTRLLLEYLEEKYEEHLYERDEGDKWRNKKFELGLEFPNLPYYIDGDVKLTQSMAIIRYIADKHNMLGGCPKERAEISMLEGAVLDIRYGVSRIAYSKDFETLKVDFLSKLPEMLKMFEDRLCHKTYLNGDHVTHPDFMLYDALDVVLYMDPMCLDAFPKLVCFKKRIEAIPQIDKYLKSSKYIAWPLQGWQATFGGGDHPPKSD
The assay can be described thus: SPR as in Example 8 (antibody captured, rMOG-GST analyte). The procedure: The antibodies were immobilized on CM5 sensor chips using a Human antibody Capture kit, and the binding abilities were evaluated using rMOG-GST produced in Example 4 as an analyte. The obtained sensorgrams were analyzed with BIA evaluation software, and the dissociation constants (KD values) were thus calculated.
Binding of the bispecific antibodies obtained in Example 6 and Example 16 to MOG was evaluated by the same method as that of Example 8.

Assay [3] deals with T1, human MOG (hMOG) expressed on HEK293, …. The assay can be described thus: flow cytometry, hMOG/L929 cells.
Description: as §1, §2

B1: AVM IgG4PE(R409K)_MOG01sscFv antibody (bispecific antibody)
heavy 1: EVQLVESGGGLVQPGRSLKLSCAASGFTFSNYAMAWVRRAPTKGLEWVASISNGGGNTYYRDSVKGRFTISRDDAKNTLYLQMDSLRSEDTATYYCARHGNYIYYGSFFDYWGQGVMVTVSSASTKGPSVFPLAPCSRSTSESTAALGCLVKDYFPEPVTVSWNSGALTSGVHTFPAVLQSSGLYSLSSVVTVPSSSLGTKTYTCNVDHKPSNTKVDKRVESKYGPPCPPCPAPEFEGGPSVFLFPPKPKDTLMISRTPEVTCVVVDVSQEDPEVQFNWYVDGVEVHNAKTKPREEQFNSTYRVVSVLTVLHQDWLNGKEYKCKVSNKGLPSSIEKTISKAKGQPREPQVYTLPPCQEEMTKNQVSLWCLVKGFYPSDIAVEWESNGQPENNYKTTPPVLDSDGSFFLYSKLTVDKSRWQEGNVFSCSVMHEALHNHYTQKSLSLSLGGGSGGGGSGGGGSGGGGSQVQLQQSGAGLLKPSETLSLTCAVSGGSFSGYYWTWIRQRPGKGLEWIGEINHRGSTDYNPSLKSRVTMSIDTSKSQFSLNLKSVTAADTAVYYCARAAWGSCYDGTCYPAEYFQYWGQGTLVTVSSGGGGSGGRASGGGGSQSALTQPASVSGSPGQSITISCTGTSRDVGGYNYVSWYQQHPGKAPKLMIYDVNNRPSGVSNRFSGSKSGNTASLTISGLQAEDEADYFCSSYTSSSTPVVFGGGTKLTVLDYKDDDDK
heavy 2: EVQLVESGGGLVQPGRSLKLSCAASGFTFSNYAMAWVRRAPTKGLEWVASISNGGGNTYYRDSVKGRFTISRDDAKNTLYLQMDSLRSEDTATYYCARHGNYIYYGSFFDYWGQGVMVTVSSASTKGPSVFPLAPCSRSTSESTAALGCLVKDYFPEPVTVSWNSGALTSGVHTFPAVLQSSGLYSLSSVVTVPSSSLGTKTYTCNVDHKPSNTKVDKRVESKYGPPCPPCPAPEFEGGPSVFLFPPKPKDTLMISRTPEVTCVVVDVSQEDPEVQFNWYVDGVEVHNAKTKPREEQFNSTYRVVSVLTVLHQDWLNGKEYKCKVSNKGLPSSIEKTISKAKGQPREPQVCTLPPSQEEMTKNQVSLSCAVKGFYPSDIAVEWESNGQPENNYKTTPPVLDSDGSFFLVSKLTVDKSRWQEGNVFSCSVMHEALHNHYTQKSLSLSLGKHHHHHH
light: QFVLSQPNSVSTNLGSTVKLSCKRSTGNIGSNYVSWYQQHEGRSPTTMIYRDDKRPDGVPDRFSGSIDRSSDSALLTINNVQTEDEADYFCQSYSSGINIFGGGTKLTVLGQPKAAPSVTLFPPSSEELQANKATLVCLISDFYPGAVTVAWKADSSPVKAGVETTTPSKQSNNKYAASSYLSLTPEQWKSHRSYSCQVTHEGSTVEKTVAPTECS
notes: copies: 1 + 1 + 2
As to B1, the binding result in assay [1] is “binds”. For the same molecule, in assay [2], the Kd was 200 nM, the koff was found to be 0.01 s⁻¹ and the kon came out at 51000 M⁻¹ s⁻¹.

B2: AVM IgG4PE(R409K)_MOG01dscFv3 antibody (bispecific antibody)
heavy: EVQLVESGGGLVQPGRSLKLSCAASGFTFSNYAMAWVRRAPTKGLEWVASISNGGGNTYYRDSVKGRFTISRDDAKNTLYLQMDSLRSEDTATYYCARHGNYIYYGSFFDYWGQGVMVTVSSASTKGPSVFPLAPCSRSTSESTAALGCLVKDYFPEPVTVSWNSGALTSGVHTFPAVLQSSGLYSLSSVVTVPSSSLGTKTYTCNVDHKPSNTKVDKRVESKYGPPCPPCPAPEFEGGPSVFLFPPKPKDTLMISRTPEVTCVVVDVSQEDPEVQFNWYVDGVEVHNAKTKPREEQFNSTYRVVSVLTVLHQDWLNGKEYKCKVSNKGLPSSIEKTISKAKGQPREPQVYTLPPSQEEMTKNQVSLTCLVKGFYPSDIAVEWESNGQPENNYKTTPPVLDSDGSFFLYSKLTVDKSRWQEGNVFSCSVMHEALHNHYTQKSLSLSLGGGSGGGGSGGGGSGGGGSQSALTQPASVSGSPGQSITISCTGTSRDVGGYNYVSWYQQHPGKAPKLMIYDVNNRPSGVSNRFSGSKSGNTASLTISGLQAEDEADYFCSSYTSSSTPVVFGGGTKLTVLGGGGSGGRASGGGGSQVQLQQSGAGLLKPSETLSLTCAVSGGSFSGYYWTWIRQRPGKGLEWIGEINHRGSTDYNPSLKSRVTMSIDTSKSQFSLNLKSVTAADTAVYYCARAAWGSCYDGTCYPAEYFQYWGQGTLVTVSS
light: QFVLSQPNSVSTNLGSTVKLSCKRSTGNIGSNYVSWYQQHEGRSPTTMIYRDDKRPDGVPDRFSGSIDRSSDSALLTINNVQTEDEADYFCQSYSSGINIFGGGTKLTVLGQPKAAPSVTLFPPSSEELQANKATLVCLISDFYPGAVTVAWKADSSPVKAGVETTTPSKQSNNKYAASSYLSLTPEQWKSHRSYSCQVTHEGSTVEKTVAPTECS
notes: also called pCI-AVM-hLG4PE(R409K)_MOG01scFv3
Consider B2, for which, in assay [3], the binding result is “binds”. In assay [2], this molecule had a Kd of 13 nM, a koff of 0.0022 s⁻¹ and a kon of 170000 M⁻¹ s⁻¹.

B3: AVM IgG4PE(R409K)_MOG01dscFv6 antibody (bispecific antibody)
heavy: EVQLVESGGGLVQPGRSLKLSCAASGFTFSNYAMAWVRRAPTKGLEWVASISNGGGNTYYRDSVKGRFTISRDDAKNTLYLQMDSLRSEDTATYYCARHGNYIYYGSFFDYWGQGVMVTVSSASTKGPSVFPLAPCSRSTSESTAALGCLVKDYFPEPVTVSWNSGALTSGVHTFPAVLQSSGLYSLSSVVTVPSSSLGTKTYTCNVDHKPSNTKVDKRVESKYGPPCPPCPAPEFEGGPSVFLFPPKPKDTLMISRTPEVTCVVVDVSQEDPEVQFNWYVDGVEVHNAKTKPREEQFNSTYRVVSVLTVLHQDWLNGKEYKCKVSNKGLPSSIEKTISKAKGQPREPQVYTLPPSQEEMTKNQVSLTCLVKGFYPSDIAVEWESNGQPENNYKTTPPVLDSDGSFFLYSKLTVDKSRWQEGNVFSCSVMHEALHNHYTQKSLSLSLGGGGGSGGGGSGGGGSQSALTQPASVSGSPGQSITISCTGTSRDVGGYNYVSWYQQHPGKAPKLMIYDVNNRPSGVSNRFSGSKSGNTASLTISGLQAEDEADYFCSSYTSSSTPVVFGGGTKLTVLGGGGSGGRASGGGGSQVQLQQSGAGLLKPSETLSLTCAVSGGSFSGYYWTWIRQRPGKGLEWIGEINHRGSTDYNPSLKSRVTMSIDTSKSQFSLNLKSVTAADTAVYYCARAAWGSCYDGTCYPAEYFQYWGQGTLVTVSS
light: QFVLSQPNSVSTNLGSTVKLSCKRSTGNIGSNYVSWYQQHEGRSPTTMIYRDDKRPDGVPDRFSGSIDRSSDSALLTINNVQTEDEADYFCQSYSSGINIFGGGTKLTVLGQPKAAPSVTLFPPSSEELQANKATLVCLISDFYPGAVTVAWKADSSPVKAGVETTTPSKQSNNKYAASSYLSLTPEQWKSHRSYSCQVTHEGSTVEKTVAPTECS
notes: also called pCI-AVM-hLG4PE(R409K)_MOG01scFv6
As to B3, the binding result in assay [3] was “binds”.

B4: AVM IgG4PE(R409K)_MOG01 Fab antibody (bispecific antibody)
heavy 1: not shown
heavy 2: QVQLQQSGAGLLKPSETLSLTCAVSGGSFSGYYWTWIRQRPGKGLEWIGEINHRGSTDYNPSLKSRVTMSIDTSKSQFSLNLKSVTAADTAVYYCARAAWGSCYDGTCYPAEYFQYWGQGTLVTVSSASTKGPSVFPLAPCSRSTSESTAALGCLVKDYFPEPVTVSWNSGALTSGVHTFPAVLQSSGLYSLSSVVTVPSSSLGTKTYTCNVDHKPSNTKVDKRV
light: QFVLSQPNSVSTNLGSTVKLSCKRSTGNIGSNYVSWYQQHEGRSPTTMIYRDDKRPDGVPDRFSGSIDRSSDSALLTINNVQTEDEADYFCQSYSSGINIFGGGTKLTVLGQPKAAPSVTLFPPSSEELQANKATLVCLISDFYPGAVTVAWKADSSPVKAGVETTTPSKQSNNKYAASSYLSLTPEQWKSHRSYSCQVTHEGSTVEKTVAPTECS
Turning to B4, the binding result in assay [1] is listed as “binds”. Moreover, in assay [2], the Kd turned out to be 34 nM, the koff was 0.0035 s⁻¹ and the kon came to 100000 M⁻¹ s⁻¹.

B5: AVM IgG4PE(R409K)_MOG01dscFv5 antibody (bispecific antibody)
heavy: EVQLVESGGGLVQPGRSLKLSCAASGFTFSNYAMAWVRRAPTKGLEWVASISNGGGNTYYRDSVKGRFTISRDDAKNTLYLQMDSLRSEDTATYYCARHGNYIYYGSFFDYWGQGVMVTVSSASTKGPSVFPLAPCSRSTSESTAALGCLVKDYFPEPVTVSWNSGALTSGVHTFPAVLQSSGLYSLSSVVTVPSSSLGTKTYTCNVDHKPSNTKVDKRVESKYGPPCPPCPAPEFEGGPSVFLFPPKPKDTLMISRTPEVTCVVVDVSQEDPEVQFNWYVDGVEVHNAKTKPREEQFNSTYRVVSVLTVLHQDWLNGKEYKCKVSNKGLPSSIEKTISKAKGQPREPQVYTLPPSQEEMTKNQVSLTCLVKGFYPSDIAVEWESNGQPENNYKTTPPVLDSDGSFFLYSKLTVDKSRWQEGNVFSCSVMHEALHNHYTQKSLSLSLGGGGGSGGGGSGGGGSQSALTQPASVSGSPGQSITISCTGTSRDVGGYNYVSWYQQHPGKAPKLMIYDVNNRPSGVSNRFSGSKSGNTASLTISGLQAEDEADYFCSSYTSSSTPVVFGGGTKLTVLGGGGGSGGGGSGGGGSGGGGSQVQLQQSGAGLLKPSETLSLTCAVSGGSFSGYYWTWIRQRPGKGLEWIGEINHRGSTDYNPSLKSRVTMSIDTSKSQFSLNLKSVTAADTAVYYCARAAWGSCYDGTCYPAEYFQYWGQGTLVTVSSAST
light: QFVLSQPNSVSTNLGSTVKLSCKRSTGNIGSNYVSWYQQHEGRSPTTMIYRDDKRPDGVPDRFSGSIDRSSDSALLTINNVQTEDEADYFCQSYSSGINIFGGGTKLTVLGQPKAAPSVTLFPPSSEELQANKATLVCLISDFYPGAVTVAWKADSSPVKAGVETTTPSKQSNNKYAASSYLSLTPEQWKSHRSYSCQVTHEGSTVEKTVAPTECS
notes: also called pCI-AVM-hLG4PE(R409K)_MOG01scFv5
As to B5, in assay [3], the binding result is listed as “binds”. In assay [2], this molecule registered a Kd of 24 nM, a koff of 0.0048 s⁻¹ and a kon of 200000 M⁻¹ s⁻¹.

B6: AVM IgG4PE(R409K)_MOG01dscFv7 antibody (bispecific antibody)
heavy: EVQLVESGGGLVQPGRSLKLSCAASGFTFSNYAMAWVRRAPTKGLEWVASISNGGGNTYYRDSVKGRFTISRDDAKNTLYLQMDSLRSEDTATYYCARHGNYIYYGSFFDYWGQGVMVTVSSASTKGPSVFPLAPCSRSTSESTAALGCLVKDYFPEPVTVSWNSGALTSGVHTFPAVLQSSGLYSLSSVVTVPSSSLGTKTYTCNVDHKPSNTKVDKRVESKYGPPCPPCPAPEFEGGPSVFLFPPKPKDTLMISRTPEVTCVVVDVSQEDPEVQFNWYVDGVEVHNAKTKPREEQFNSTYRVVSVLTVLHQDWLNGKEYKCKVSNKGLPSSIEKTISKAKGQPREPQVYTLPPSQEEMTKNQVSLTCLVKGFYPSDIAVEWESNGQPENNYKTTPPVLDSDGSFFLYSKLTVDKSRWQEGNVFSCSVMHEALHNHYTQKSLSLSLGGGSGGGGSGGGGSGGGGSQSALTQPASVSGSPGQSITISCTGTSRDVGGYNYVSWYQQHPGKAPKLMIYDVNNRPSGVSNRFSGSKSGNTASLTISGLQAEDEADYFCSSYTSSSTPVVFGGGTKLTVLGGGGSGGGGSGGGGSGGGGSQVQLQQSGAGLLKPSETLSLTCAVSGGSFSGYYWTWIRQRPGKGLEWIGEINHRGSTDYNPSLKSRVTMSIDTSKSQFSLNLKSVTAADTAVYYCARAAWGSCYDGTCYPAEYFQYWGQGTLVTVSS
light: QFVLSQPNSVSTNLGSTVKLSCKRSTGNIGSNYVSWYQQHEGRSPTTMIYRDDKRPDGVPDRFSGSIDRSSDSALLTINNVQTEDEADYFCQSYSSGINIFGGGTKLTVLGQPKAAPSVTLFPPSSEELQANKATLVCLISDFYPGAVTVAWKADSSPVKAGVETTTPSKQSNNKYAASSYLSLTPEQWKSHRSYSCQVTHEGSTVEKTVAPTECS
notes: also called pCI-AVM-hLG4PE(R409K)_MOG01scFv7
Consider B6, for which, in assay [3], the binding result was “binds”.
